Reference: article PMC4351179

Target: human DNA polymerase theta (Polθ), polymerase domain, wild type (human)
Test: SEC

stoichiometry N: 2
Substance: human DNA polymerase theta (Polθ), polymerase domain, wild type (domain or fragment)
